Results as given in the RNAGym collection of RNA variant scans (doi:10.1073/pnas.2313332121).
This sample holds only a part of the variants without activity.

B1: TPR 5TU (parent)
chain: GGAUCUUCUCGAUCUAACAAAAAAGACAAAUCUGCCACAAAGCUUGAGAGCAUCUUCGGAUGCAGAGGCGGCAGCCUUCGGUGGCGCGAUAGCGCCAACGUUCUCAACUAUGACACGCAAAACGCGUGCUCCGUUGAAUGGAGUUUAUCAUG

Variants of: B1
Assay: polymerase ribozyme fitness, log enrichment relative to wild type (log ratio); higher = more active; in vitro selection for triplet polymerase activity
Method in brief: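 Both subunits of a heterodimeric triplet polymerase ribozyme were given their own mutant library, built by PCR and transcribed. Each library was annealed with a biotinylated primer, the partner subunit and triplets, incubated frozen at −7 °C, and its extended constructs gel-excised, captured on streptavidin beads and amplified by RT-PCR, all in one round done in triplicate. Fitness is the logarithm of genotype enrichment relative to wild-type enrichment, with replicates averaged by inverse-variance weighting. That logarithm is base 2, and Illumina-sequenced genotypes needed ≥10 input reads and ≥1 read per output.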

For U6A C57G A64G C76U C87A, which “polymerase ribozyme fitness (log ratio)” value is on record?
Its value is ≤ -4.2.

Which “polymerase ribozyme fitness (log ratio)” value does the source give for U6A C93A here?
Its value is -2.58.

For U6A A12U, which “polymerase ribozyme fitness (log ratio)” value is on record?
Its value is 0.206.

For U6A A30C G58C A60U C76G A106U C149G, which “polymerase ribozyme fitness (log ratio)” value is on record?
The value was ≤ -4.2.

Which “polymerase ribozyme fitness (log ratio)” value does the source give for U6G A60C C85A C96U G124U here?
Its value is -4.11.

With U6G C27A U33C C85A G88A U134C as the variant, how does the “polymerase ribozyme fitness (log ratio)” value read?
Its value is ≤ -4.2.

For U6A U44G A98U A107U, which “polymerase ribozyme fitness (log ratio)” value is on record?
The value was -1.58.

Which “polymerase ribozyme fitness (log ratio)” value does the source give for U6C U9A A30U A49U C85U U146C here?
Its value is ≤ -4.2.

With C5U U45A G50U G86C C96U as the variant, how does the “polymerase ribozyme fitness (log ratio)” value read?
The value was ≤ -4.2.

With U6A A24C G48A C93U U127G U144A as the variant, how does the “polymerase ribozyme fitness (log ratio)” value read?
The value was ≤ -4.2.

With C5U A52U G67U C93U C96U A115C as the variant, how does the “polymerase ribozyme fitness (log ratio)” value read?
The value was ≤ -4.2.

Which “polymerase ribozyme fitness (log ratio)” value does the source give for U6A A16U A107C C131G here?
Its value is ≤ -4.2.

For U6G A40U A49U A66C G94U A98U U134C G140A, which “polymerase ribozyme fitness (log ratio)” value is on record?
Its value is ≤ -4.2.

With U6A C35A U104C as the variant, how does the “polymerase ribozyme fitness (log ratio)” value read?
Its value is -3.88.

With U6C C87A G88U C96A A120U C123U as the variant, how does the “polymerase ribozyme fitness (log ratio)” value read?
Its value is ≤ -4.2.

Which “polymerase ribozyme fitness (log ratio)” value does the source give for U6G A40U A66G U82A C96A G100U here?
The value was ≤ -4.2.

For U6G C63U A89C, which “polymerase ribozyme fitness (log ratio)” value is on record?
Its value is -0.961.

With U6C A39C A66G U90A C93A C99A G100C C103A C116G A147C as the variant, how does the “polymerase ribozyme fitness (log ratio)” value read?
Its value is ≤ -4.2.

Which “polymerase ribozyme fitness (log ratio)” value does the source give for U6C U33G U56C G81C C95U here?
Its value is ≤ -4.2.

Which “polymerase ribozyme fitness (log ratio)” value does the source give for U6C A49G G59A G92A U111A here?
Its value is ≤ -4.2.

For U6C C10U A20C A122C, which “polymerase ribozyme fitness (log ratio)” value is on record?
Its value is ≤ -4.2.

For U6C U7G A49G A66C G74A C96G, which “polymerase ribozyme fitness (log ratio)” value is on record?
The value was ≤ -4.2.

For U6G C54G A73U U102A A106G U127G C132G U135G, which “polymerase ribozyme fitness (log ratio)” value is on record?
Its value is ≤ -4.2.

For U6A G42C A49C A52C C75U C85U A91U, which “polymerase ribozyme fitness (log ratio)” value is on record?
Its value is ≤ -4.2.

For U6G A41C G42A U56C C85A C99A, which “polymerase ribozyme fitness (log ratio)” value is on record?
The value was ≤ -4.2.

With U6C C63U A138G as the variant, how does the “polymerase ribozyme fitness (log ratio)” value read?
Its value is -4.08.

Which “polymerase ribozyme fitness (log ratio)” value does the source give for U6C U31C C57A C96G here?
Its value is -1.1.

Which “polymerase ribozyme fitness (log ratio)” value does the source give for U6G U13G A16G C85G G86A A142G here?
Its value is ≤ -4.2.

With U6C A19C A26G C85G C108A as the variant, how does the “polymerase ribozyme fitness (log ratio)” value read?
Its value is ≤ -4.2.

With U6G A37C C51G G74C A98U C103A C118A G128U U135C U146C G152A as the variant, how does the “polymerase ribozyme fitness (log ratio)” value read?
Its value is ≤ -4.2.

Which “polymerase ribozyme fitness (log ratio)” value does the source give for U6G C57A C85A C95U here?
The value was -0.326.

With C5U U13G A20C C27G G80A C87U U148G as the variant, how does the “polymerase ribozyme fitness (log ratio)” value read?
Its value is ≤ -4.2.

With U6G C27U A49C C79G A89U C93U C132A as the variant, how does the “polymerase ribozyme fitness (log ratio)” value read?
The value was ≤ -4.2.

With U6C A47G G59C G92U C99A C118G as the variant, how does the “polymerase ribozyme fitness (log ratio)” value read?
The value was -3.32.

Which “polymerase ribozyme fitness (log ratio)” value does the source give for C5U A28C U56A U77C G94A here?
The value was ≤ -4.2.

For U6G A41U U45C, which “polymerase ribozyme fitness (log ratio)” value is on record?
Its value is -2.17.

With U6C C27U U145C as the variant, how does the “polymerase ribozyme fitness (log ratio)” value read?
The value was -3.08.

For U6C U61A G68C G84A G88U A121G G124A, which “polymerase ribozyme fitness (log ratio)” value is on record?
The value was ≤ -4.2.

For C5U C51A G58A G81C, which “polymerase ribozyme fitness (log ratio)” value is on record?
Its value is -1.81.

For U6G A12U A23G C38A G83U U90G C95A, which “polymerase ribozyme fitness (log ratio)” value is on record?
Its value is ≤ -4.2.

For C5U U7A G88U U148C A150C, which “polymerase ribozyme fitness (log ratio)” value is on record?
Its value is ≤ -4.2.

For C5U U55A, which “polymerase ribozyme fitness (log ratio)” value is on record?
The value was 0.322.

With U6G C85A C125G as the variant, how does the “polymerase ribozyme fitness (log ratio)” value read?
Its value is -0.955.

For U6G C69U G84A A106C, which “polymerase ribozyme fitness (log ratio)” value is on record?
The value was -2.47.

For U6G A20U A73U U134C U145G, which “polymerase ribozyme fitness (log ratio)” value is on record?
The value was -3.22.

With C5U A24C C79A G84A U104A A142G as the variant, how does the “polymerase ribozyme fitness (log ratio)” value read?
The value was ≤ -4.2.

For U6G C85A C87G A98U A106C U148A, which “polymerase ribozyme fitness (log ratio)” value is on record?
The value was ≤ -4.2.

With U6G A12U A22U A64U G88C C95U as the variant, how does the “polymerase ribozyme fitness (log ratio)” value read?
Its value is ≤ -4.2.

For U6A U146G A150G G152A, which “polymerase ribozyme fitness (log ratio)” value is on record?
Its value is -1.38.

With U6G C75U as the variant, how does the “polymerase ribozyme fitness (log ratio)” value read?
Its value is 0.374.

With C5U G50C C87U C103G A121G C123U C125G as the variant, how does the “polymerase ribozyme fitness (log ratio)” value read?
Its value is ≤ -4.2.

Which “polymerase ribozyme fitness (log ratio)” value does the source give for C5U C75A here?
Its value is -4.03.

Which “polymerase ribozyme fitness (log ratio)” value does the source give for U6C C95U A98U C99U here?
The value was -2.4.

For U6G C63U G83U A98U A122U, which “polymerase ribozyme fitness (log ratio)” value is on record?
Its value is -0.875.

For U6A A37G G80A C87A U102G G152A, which “polymerase ribozyme fitness (log ratio)” value is on record?
The value was ≤ -4.2.

For U6A A16C U56A U61A C95U C114U, which “polymerase ribozyme fitness (log ratio)” value is on record?
Its value is -3.64.

For U6C G94A C105U U127A, which “polymerase ribozyme fitness (log ratio)” value is on record?
Its value is ≤ -4.2.

Which “polymerase ribozyme fitness (log ratio)” value does the source give for U6G A28U C72U C87A here?
The value was ≤ -4.2.

With U6A A29G G74A C103G A107G A122U as the variant, how does the “polymerase ribozyme fitness (log ratio)” value read?
Its value is ≤ -4.2.

For U6C A21U U55A G58A G86A, which “polymerase ribozyme fitness (log ratio)” value is on record?
The value was -3.18.

For U6A G25A A26C G50U A52G C76G C118G G136A, which “polymerase ribozyme fitness (log ratio)” value is on record?
Its value is ≤ -4.2.

Which “polymerase ribozyme fitness (log ratio)” value does the source give for C5U C8G A23U U45A G84C here?
The value was ≤ -4.2.

Which “polymerase ribozyme fitness (log ratio)” value does the source give for U6A U56A here?
The value was -0.431.

Which “polymerase ribozyme fitness (log ratio)” value does the source give for U6A A22G C125U here?
The value was -0.424.

For U6G A12U A28C A40C G94C, which “polymerase ribozyme fitness (log ratio)” value is on record?
The value was ≤ -4.2.

For U6G A40U U56A C93U A106C, which “polymerase ribozyme fitness (log ratio)” value is on record?
Its value is -1.92.

For U6C A20C A28C A37U G42U G71A C85U C99G A106G C131G, which “polymerase ribozyme fitness (log ratio)” value is on record?
The value was ≤ -4.2.

For U6G A52C, which “polymerase ribozyme fitness (log ratio)” value is on record?
Its value is -0.94.

Which “polymerase ribozyme fitness (log ratio)” value does the source give for C5U C85U here?
Its value is -0.24.

With U6A C14U A91C A150U as the variant, how does the “polymerase ribozyme fitness (log ratio)” value read?
Its value is ≤ -4.2.

Which “polymerase ribozyme fitness (log ratio)” value does the source give for U6A C57G C105U here?
The value was 0.464.

With U6G G34C A52U A89G C93A A107U A115U A150C as the variant, how does the “polymerase ribozyme fitness (log ratio)” value read?
The value was ≤ -4.2.

With U6A A12C G58U A91C A98U C103G C131U as the variant, how does the “polymerase ribozyme fitness (log ratio)” value read?
The value was ≤ -4.2.

Which “polymerase ribozyme fitness (log ratio)” value does the source give for C5U A23U C32U G74U G83A C114U G136U C149U here?
Its value is ≤ -4.2.

With C5U A24G G94A C123U G140U as the variant, how does the “polymerase ribozyme fitness (log ratio)” value read?
Its value is ≤ -4.2.

Which “polymerase ribozyme fitness (log ratio)” value does the source give for U6G G46A U56C C76G G81C A91C A106G A137U U144C U151A here?
Its value is ≤ -4.2.

For C5U G50A C54A C76U G84U C95U C114U, which “polymerase ribozyme fitness (log ratio)” value is on record?
The value was ≤ -4.2.

With U6G A30C C43G A52C C54U U77A C85G A119G U148G as the variant, how does the “polymerase ribozyme fitness (log ratio)” value read?
Its value is ≤ -4.2.

With C5U U13C C95U U146G as the variant, how does the “polymerase ribozyme fitness (log ratio)” value read?
The value was -1.13.

For U6C U55G C132A A138G, which “polymerase ribozyme fitness (log ratio)” value is on record?
Its value is ≤ -4.2.

For U6G G48U G58A C76G U82C C93U A122C A138G A142G, which “polymerase ribozyme fitness (log ratio)” value is on record?
Its value is ≤ -4.2.

For C5U C87U G94C, which “polymerase ribozyme fitness (log ratio)” value is on record?
Its value is -2.15.

With U6G C8G A47C G59U A91C C96G C132G G133A as the variant, how does the “polymerase ribozyme fitness (log ratio)” value read?
The value was ≤ -4.2.

For U6C C93G, which “polymerase ribozyme fitness (log ratio)” value is on record?
The value was -3.54.
